Here are results for 1 molecule from paper PMC3035472.

For this series, the target named is sigma A (primary sigma factor), wild type, refolded from inclusion bodies (Bacillus subtilis, UniProt P06224 1-371). As to the kind of experiment: EMSA.
Sequence of sigma A (primary sigma factor), wild type, refolded from inclusion bodies (P06224 whole entry): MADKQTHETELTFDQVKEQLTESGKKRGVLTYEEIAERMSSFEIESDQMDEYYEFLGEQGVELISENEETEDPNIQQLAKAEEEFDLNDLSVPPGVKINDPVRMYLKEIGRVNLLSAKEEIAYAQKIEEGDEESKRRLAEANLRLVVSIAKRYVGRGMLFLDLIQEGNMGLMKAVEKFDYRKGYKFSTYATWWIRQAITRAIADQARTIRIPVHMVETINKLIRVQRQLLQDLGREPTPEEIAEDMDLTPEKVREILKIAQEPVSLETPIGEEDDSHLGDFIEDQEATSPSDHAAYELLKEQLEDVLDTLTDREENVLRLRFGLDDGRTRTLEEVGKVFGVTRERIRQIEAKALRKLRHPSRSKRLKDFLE

B1: tgbp3 cDNA fragment (non-promoter) (dsDNA)
DNA 1: AGACTACCATGGCTCTAAACACTGACACACTATGCATCATTCTGTTCATACTAATATTAGGCATCCTATATAATATACTTCAACAGCATCTGCCCCCACCATGTGAAATAATAATAAACGGGCACACTATATCCATTAGGGGCAACTGCTACCACACCACCTCCAGCCTCGAGCACCAC
DNA 2: GTGGTGCTCGAGGCTGGAGGTGGTGTGGTAGCAGTTGCCCCTAATGGATATAGTGTGCCCGTTTATTATTATTTCACATGGTGGGGGCAGATGCTGTTGAAGTATATTATATAGGATGCCTAATATTAGTATGAACAGAATGATGCATAGTGTGTCAGTGTTTAGAGCCATGGTAGTCT
As to B1, the binding result is given as “binds”.
